T1: human IL-2Rγ (common cytokine receptor γ-chain) (human, UniProt P31785 23-262, limits assumed)
T1 construct: Recombinant protein coated on the plate or immobilised on a CM5 chip; also called hu IL-2R; CD132
T1 sequence: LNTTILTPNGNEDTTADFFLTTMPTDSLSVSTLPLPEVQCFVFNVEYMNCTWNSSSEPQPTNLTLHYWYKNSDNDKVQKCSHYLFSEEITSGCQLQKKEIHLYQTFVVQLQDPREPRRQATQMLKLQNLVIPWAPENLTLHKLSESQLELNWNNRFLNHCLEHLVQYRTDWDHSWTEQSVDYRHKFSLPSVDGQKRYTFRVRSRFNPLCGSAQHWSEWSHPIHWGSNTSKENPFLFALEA

T2: mouse IL-2Rγ (mouse, UniProt P34902 23-263)
T2 construct: also called mo IL-2R
T2 sequence (looked up): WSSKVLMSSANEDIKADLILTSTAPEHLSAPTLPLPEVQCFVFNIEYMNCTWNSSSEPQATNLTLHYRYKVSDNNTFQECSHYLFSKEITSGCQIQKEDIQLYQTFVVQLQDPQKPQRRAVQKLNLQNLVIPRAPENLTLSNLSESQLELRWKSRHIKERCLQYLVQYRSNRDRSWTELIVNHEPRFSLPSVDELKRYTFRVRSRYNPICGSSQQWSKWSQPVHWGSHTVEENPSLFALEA

T3: human IL-2Rα (human, UniProt P01589 22-240, limits assumed)
T3 construct: recombinant protein; also called hu IL-2R; human IL-2Ra
T3 sequence: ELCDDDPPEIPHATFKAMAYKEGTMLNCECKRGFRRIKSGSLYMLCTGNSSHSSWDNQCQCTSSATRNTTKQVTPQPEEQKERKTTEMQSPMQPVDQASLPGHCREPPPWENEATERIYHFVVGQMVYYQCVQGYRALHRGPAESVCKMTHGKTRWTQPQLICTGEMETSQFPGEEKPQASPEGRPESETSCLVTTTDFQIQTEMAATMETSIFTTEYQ

T4: mouse IL-2Rα (mouse, UniProt P01590 22-236, limits assumed)
T4 construct: recombinant protein; also called mo IL-2R; mouse IL-2Ra
T4 sequence (looked up): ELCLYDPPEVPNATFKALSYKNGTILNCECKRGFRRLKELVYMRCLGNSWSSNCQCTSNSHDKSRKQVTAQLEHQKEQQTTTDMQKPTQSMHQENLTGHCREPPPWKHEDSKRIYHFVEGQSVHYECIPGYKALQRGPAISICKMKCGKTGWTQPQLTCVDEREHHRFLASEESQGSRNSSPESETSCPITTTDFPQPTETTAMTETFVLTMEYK


What was measured:
[1] = target: T1, human IL-2Rγ (common cytokine receptor …); assay: PE binding ELISA, periplasmic extract on coated protein
How it was run: (§1)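 Read-out: OD at 450 nm, specificity called versus negative controls. Receptor chains (human or mouse IL-2Rα, β, γ) were coated directly overnight at 4° C; 4% Marvel/PBS block 1 h; P.E. at 1:5 dilution in 1% Marvel/PBS incubated 1 h.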

mouse IL-2Rγ [2] = target: T2, mouse IL-2Rγ; assay: as above
How it was run: as §1

[3] = target: T1, human IL-2Rγ (common cytokine receptor …); assay: SPR off-rate ranking, periplasmic extract on immobilised protein
How it was run: (§2)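 First, the IL-2R protein is immobilised via amine coupling in acetate buffer to roughly 2500 RU on a CM5 sensor chip. Next, the VHH extract is loaded at 30 uL/min. Finally, dissociation is recorded for 120s.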

mouse IL-2Rγ [4] = target: T2, mouse IL-2Rγ; assay: as above
How it was run: as §2

human IL-2Rα [5] = target: T3, human IL-2Rα; assay: ELISA, P.E. on coated antigen
How it was run: as §1

mouse IL-2Rα [6] = target: T4, mouse IL-2Rα; assay: ELISA, P.E. on coated antigen
How it was run: as §1

human IL-2Rα [7] = target: T3, human IL-2Rα; assay: SPR, P.E. on immobilised antigen
How it was run: as §2

mouse IL-2Rα [8] = target: T4, mouse IL-2Rα; assay: SPR, P.E. on immobilised antigen
How it was run: as §2

| OD (PE binding ELISA) [1] [OD450 nm] | OD (PE binding ELISA) (mouse IL-2Rγ [2]) [OD450 nm] | koff [3] [s⁻¹] | koff (mouse IL-2Rγ [4]) [s⁻¹] | OD (PE binding ELISA) (human IL-2Rα [5]) [OD450 nm] | OD (PE binding ELISA) (mouse IL-2Rα [6]) [OD450 nm] | koff (human IL-2Rα [7]) [s⁻¹] | koff (mouse IL-2Rα [8]) [s⁻¹] | Binder |
| --- | --- | --- | --- | --- | --- | --- | --- | --- |
| 0.789 | 0.064 | 0.00249 | 0.156 |  |  |  |  | FJ1427_P035MP04F07 (VHH, VHH in periplasmic extract; also called clone nr) VHH: EVQLVESGGGLVQAGGSLRLSCAASGRTLSRYAMGWFRQAPGKEREFVTANSWGGDTYYADSVQGRFTFSRDNAKNTVYLQMNSLQPEDTAVYYCAAAPTSFATTAYSSSNSYAYWGQGTQVTVSS |
| 1.67 | 0.109 | 0.00206 | 0.104 |  |  |  |  | FJ1427_P035MP04H01 (VHH, VHH in periplasmic extract; also called clone nr) VHH: QVQLVESGGGLVQAGGSLRLSCAASGRTLSRYAMGWFRQAPGKEREFVTANSWGGDTYYADSVQGRFTFSRDNAKNTVYLQMNSLQPEDTAVYYCAAAPTSFATTAYSSSNSYAYWGQGTQVTVSS |
| 1.57 | 0.08 | 0.00273 | 0.108 |  |  |  |  | FJ1427_P035MP04H05 (VHH, VHH in periplasmic extract; also called clone nr) VHH: QVQLVESGGGLVQAGGSLRLSCAASGRTLSRYAMGWFRQAPGKEREFVTANSWGGDTYYADSVQGRFTFSRDNAKNTVYLQMNSLQPEDTAVYYCAAAPTSFATTAYSSSNSYAYWGQGTQVTVSS |
| 0.98 | 0.066 | 0.00148 | 0.114 |  |  |  |  | FJ1427_P035MP04G02 (VHH, VHH in periplasmic extract; also called clone nr) VHH: QVQLVESGGGLVQAGGSLRLSCAASGRTLSRYAMGWFRQAPGKEREFVTANSWGGDTYYADSVQGRFTFSRDNAKNTVYLQMNSLQPEDTAVYYCAAAPTSFATTAYSSSNSYAYWGQGTQVTVSS |
| 0.919 | 0.076 | 0.00154 | 0.101 |  |  |  |  | FJ1427_P035MP04H07 (VHH, VHH in periplasmic extract; also called clone nr) VHH: QLQLVESGGGLVQAGGSLRLSCAASGRTLSRYAMGWFRQAPGKEREFVTANSWGGDTYYADSVQGRFTFSRDNAKNTVYLQMNSLQPEDTAVYYCAAAPTSFATTAYSSSNSYAYWGQGTQVTVSS |
| 1.25 | 0.442 | 0.001 | 0.0297 |  |  |  |  | FJ1427_P035MP04H03 (VHH, VHH in periplasmic extract; also called clone nr) VHH: QLQLVESGGGLVQAGGSLRLSCAASGRTLSRYAMGWFRQAPGKEREFVAADSWGGDTFYADSVEGRFTFSRDNAKNAAYLQMNSLQPEDTATYYCAGAPTSFATTAYSSSNSYRYWGQGTQVTVSS |
| 1.67 | 0.276 | 0.00122 | 0.0666 |  |  |  |  | FJ1427_P035MP04G04 (VHH, VHH in periplasmic extract; also called clone nr) VHH: QVQLVESGGGLVQAGGSLRLSCAASGRTLSRYAVGWFRQAPGKEREFVTANSWGGDTFYADSVQGRFTFSRDNAKNTVYLQMNSLLPEDAAVYYCAAAPTSFATTAYSSSNSYKVWGQGTQVTVSS |

The remaining lines, values behind:

| Binder | OD (PE binding ELISA) [1] [OD450 nm] | OD (PE binding ELISA) (mouse IL-2Rγ [2]) [OD450 nm] | koff [3] [s⁻¹] | koff (mouse IL-2Rγ [4]) [s⁻¹] | OD (PE binding ELISA) (human IL-2Rα [5]) [OD450 nm] | OD (PE binding ELISA) (mouse IL-2Rα [6]) [OD450 nm] | koff (human IL-2Rα [7]) [s⁻¹] | koff (mouse IL-2Rα [8]) [s⁻¹] |
| --- | --- | --- | --- | --- | --- | --- | --- | --- |
| FJ1427_P035MP04D10 (VHH, VHH in periplasmic extract; also called clone nr; 364) VHH: QVQLVESGGGLVQAGGSLRLSCAASGRTLSRYAMGWFRQAPGKEREFVTANSWGGDTYYADSVQGRFTFSRDNAKNTVYLQMNSLQPEDTAVYYCAAAPTSFATTAYSSSNSYAYWGQGTQVTVSS | 1.26 | 0.077 | 0.00139 | 0.12 |  |  |  |  |
| FJ1427_P035MP04B09 (VHH, VHH in periplasmic extract; also called clone nr) VHH: QVQLVESGGGLVQAGGSLRLSCAASGRTLSRYAMGWFRQAPGKEREFVTANSWGGDTYYADSVQGRFTFSRDNAKNTVYLQMNSLQPEDTAVYYCAAAPTSFATTAYSSSNSYAYWGQGTQVTVSS | 1.54 | 0.083 | 0.00146 | 0.122 |  |  |  |  |
| FJ1427_P035MP04B12 (VHH, VHH in periplasmic extract; also called clone nr) VHH: QVQLVESGGGLVQAGGSLRLSCAASGRTLSRYAMGWFRQAPGKEREFVTANSWGGDTYYADSVQGRFTFSRDNAKNTVYLQMNSLQPEDTAVYYCAAAPTSFATTAYSSSNSYAYWGQGTQVTVSS | 0.936 | 0.074 | 0.00344 | 0.116 |  |  |  |  |
| FJ1427_P035MP04A02 (VHH, VHH in periplasmic extract; also called clone nr) VHH: QVQLVESGGGLVQAGGSLRLSCAASGRTLSRYAMGWFRQAPGKEREFVTANSWGGDTYYADSVQGRFTFSRDNAKNTVYLQMNSLQPEDTAVYYCAAAPTSFATTAYSSSNSYAYWGQGTQVTVSS | 1.45 | 0.085 | 0.00306 | 0.126 |  |  |  |  |
| FJ1427_P035MP04E01 (VHH, VHH in periplasmic extract; also called clone nr) VHH: QVQLVESGGGLVQAGGSLRLSCAASGRTLSRYAMGWFRQAPGKEREFVTANSWGGDTYYADSVQGRFTFSRDNAKNTVYLQMNSLQPEDTAVYYCAAAPTSFATTAYSSSNSYAYWGQGTQVTVSS | 1.08 | 0.067 | 0.00266 | 0.109 |  |  |  |  |
| FJ1427_P035MP04F06 (VHH, VHH in periplasmic extract; also called clone nr) VHH: QVQLVESGGGLVQAGGSLRLSCAASGRTLSRYAMGWFRQAPGKEREFVTANSWGGDTYYADSVQGRFTFSRDNAKNTVYLQMNSLQPEDTAVYYCAAAPTSFATTAYSSSNSYAYWGQGTQVTVSS | 1.41 | 0.077 | 0.00298 | 0.116 |  |  |  |  |
| FJ1427_P035MP04E11 (VHH, VHH in periplasmic extract; also called clone nr) VHH: QVQLVESGGGLVQAGGSLRLSCAASGRTLSRYAMGWFRQAPGKEREFVTANSWGGDTYYADSVQGRFTFSRDNAKNTVYLQMNSLQPEDTAVYYCAAAPTSFATTAYSSSNSYAYWGQGTQVTVSS | 0.94 | 0.065 | 0.00149 | 0.117 |  |  |  |  |
| FJ1427_P035MP04C02 (VHH, VHH in periplasmic extract; also called clone nr) VHH: QVQLVESGGGLVQAGGSLRLSCAASGRTLSRYAMGWFRQAPGKEREFVTANSWGGDTYYADSVQGRFTFSRDNAKNTVYLQMNSLQPEDTAVYYCAAAPTSFATTAYSSSNSYAYWGQGTQVTVSS | 1 | 0.07 | 0.00196 | 0.126 |  |  |  |  |
| FJ1427_P035MP04F01 (VHH, VHH in periplasmic extract; also called clone nr) VHH: QVQLVESGGGLVQAGGSLRLSCAASGRTLSRYAMGWFRQAPGKEREFVTANSWGGDTYYADSVQGRFTFSRDNAKNTVYLQMNSLQPEDTAVYYCAAAPTSFATTAYSSSNSYAYWGQGTQVTVSS | 1.66 | 0.085 | 0.00268 | 0.11 |  |  |  |  |
| FJ1427_P035MP04E08 (VHH, VHH in periplasmic extract; also called clone nr) VHH: QVQLVESGGGLVQAGGSLRLSCAASGRTLSRYAMGWFRQAPGKEREFVTANSWGGDTYYADSVQGRFTFSRDNAKNTVYLQMNSLQPEDTAVYYCAAAPTSFATTAYSSSNSYAYWGQGTQVTVSS | 1.23 | 0.078 | 0.00197 | 0.122 |  |  |  |  |
| 4-MP01F04 (VHH, periplasmic extract; also called FJ1427_P035MP01F04) VHH: QVQLVESGGGLVQAGGSLRLSCAASGGTFRTRNMGWFRRAPGKEREFVAAVSWNVDNKLYADSVKGRFTISRDNGRNMVYLQMNSLKPEDTAVYYCAADNIPLSSDMRPTATEYDYWGQGTQVTVSS |  |  |  |  | 2.49 | 0.046 | 0.000258 | 0.256 |
| 38-MP07A11 (VHH, VHH in periplasmic extract; also called FJ1427_P035MP07A11; clone nr) VHH: QVQLVESGGGLVQAGGSLRLSCAASGRSLSRDAMGWFRQAPGKEREFVAVMSWGGDTFYTDSVEGRFTFSRDNAKNAVYLEMNDLQPEDTAVYYCAAAPTSFATTAYSSSNSYSYWGRGTQVTVSS | 1.31 | 0.173 | 0.00235 | 0.0149 |  |  |  |  |

From patent publication US20240409645A1 (DUALYX, published 2024)
